Data on 2 molecules can be found in article doi:10.1101/2025.08.28.672867, “Catalytic pocket of Clr4 (Suv39h) methyltransferase serves as a substrate receptor for Cullin 4-dependent histone H3 ubiquitination” (bioRxiv, 2025).

One assay deals with T1, 6×His-MBP-Raf1 (S. pombe, UniProt O74910 1-638).
T1 construct: Raf1 (Rik1-associated factor 1, DDB2 homolog), S. pombe; Expressed from one bacmid with Raf2, Rik1 and Cul4 and purified with them; A TEV site lies between MBP and Raf1; also called Raf1-MBP; Raf1 (DDB2 homolog); source: Hi5 insect cells (baculovirus), purified (Ni-NTA, amylose, SEC) together with Raf2, Rik1 and Cul4; not shown: His6, N-terminal, kept; MBP, N-terminal, kept
T1 sequence (looked up): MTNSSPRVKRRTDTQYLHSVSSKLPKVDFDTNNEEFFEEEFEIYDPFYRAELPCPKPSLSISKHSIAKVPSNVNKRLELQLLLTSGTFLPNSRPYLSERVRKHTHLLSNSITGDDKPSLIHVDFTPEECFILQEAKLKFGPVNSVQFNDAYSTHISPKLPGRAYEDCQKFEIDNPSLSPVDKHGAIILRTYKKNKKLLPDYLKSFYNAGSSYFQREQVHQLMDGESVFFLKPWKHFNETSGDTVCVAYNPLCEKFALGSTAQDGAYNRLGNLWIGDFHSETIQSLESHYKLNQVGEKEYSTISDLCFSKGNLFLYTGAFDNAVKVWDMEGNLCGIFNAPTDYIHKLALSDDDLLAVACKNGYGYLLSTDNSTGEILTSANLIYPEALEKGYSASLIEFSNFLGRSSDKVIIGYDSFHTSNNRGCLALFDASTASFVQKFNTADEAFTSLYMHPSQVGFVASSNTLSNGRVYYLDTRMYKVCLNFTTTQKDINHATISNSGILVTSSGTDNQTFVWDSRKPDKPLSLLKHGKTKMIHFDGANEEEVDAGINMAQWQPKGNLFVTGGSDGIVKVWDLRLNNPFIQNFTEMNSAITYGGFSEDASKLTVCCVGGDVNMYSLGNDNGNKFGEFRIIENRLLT
The experiment in a line: pull-down; MBP-Raf1 held on amylose resin and incubated with Clr4 FL or fragments (legend: 'MBP pulldown assays of CLRC subunits'); 1:1 molar ratio, 30 min on ice, resin 1 h at 4 °C; wash 20 mM HEPES pH 7.5, 150 mM NaCl, 0.02% Triton X-100; SDS-PAGE. The note with it: both partners purified.

Assay [1] deals with T2, CLRC complex lacking Clr4 (CLRC^-Clr4): 6×His-MBP-Raf1, Raf2, Rik1 and Cul4 (S. pombe, UniProt O74910 1-638; O74560 1-636; Q10426 1-1040; O14122 1-734).
T2 construct: Raf1 (DDB2 homolog), S. pombe; as the chain of m2; Raf2, S. pombe; as the chain of m3; Rik1 (DDB1 homolog), S. pombe; as the chain of m4; Cullin 4, S. pombe; as the chain of m5; also called four-subunit CLRC complex; CLRC minus Clr4; source: Hi5 insect cells (baculovirus, single bacmid), purified (Ni-NTA, amylose, SEC on Superose 6 Increase); not shown: His6, N-terminal, kept; MBP, N-terminal, …
The assay is described as above. The note with it: both partners purified.

T2 sequence (O74560 whole entry, chain 2 of 3): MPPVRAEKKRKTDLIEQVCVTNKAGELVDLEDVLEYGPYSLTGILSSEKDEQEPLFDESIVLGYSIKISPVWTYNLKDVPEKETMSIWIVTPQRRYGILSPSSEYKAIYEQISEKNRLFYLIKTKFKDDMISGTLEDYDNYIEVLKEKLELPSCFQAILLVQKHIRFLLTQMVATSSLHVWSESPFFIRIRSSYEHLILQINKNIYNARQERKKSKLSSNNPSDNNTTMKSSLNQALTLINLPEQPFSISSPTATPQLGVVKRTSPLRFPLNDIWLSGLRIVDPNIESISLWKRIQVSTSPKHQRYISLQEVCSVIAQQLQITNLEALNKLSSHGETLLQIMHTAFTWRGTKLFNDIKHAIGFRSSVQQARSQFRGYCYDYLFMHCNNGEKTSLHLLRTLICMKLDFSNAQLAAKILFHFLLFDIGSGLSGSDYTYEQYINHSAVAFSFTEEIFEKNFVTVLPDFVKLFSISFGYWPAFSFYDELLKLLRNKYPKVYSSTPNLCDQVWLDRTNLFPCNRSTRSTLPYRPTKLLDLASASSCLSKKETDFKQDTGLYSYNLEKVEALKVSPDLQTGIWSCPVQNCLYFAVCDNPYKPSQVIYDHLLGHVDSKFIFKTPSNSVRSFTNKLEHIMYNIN
T2 sequence (Q10426 whole entry, chain 3 of 3): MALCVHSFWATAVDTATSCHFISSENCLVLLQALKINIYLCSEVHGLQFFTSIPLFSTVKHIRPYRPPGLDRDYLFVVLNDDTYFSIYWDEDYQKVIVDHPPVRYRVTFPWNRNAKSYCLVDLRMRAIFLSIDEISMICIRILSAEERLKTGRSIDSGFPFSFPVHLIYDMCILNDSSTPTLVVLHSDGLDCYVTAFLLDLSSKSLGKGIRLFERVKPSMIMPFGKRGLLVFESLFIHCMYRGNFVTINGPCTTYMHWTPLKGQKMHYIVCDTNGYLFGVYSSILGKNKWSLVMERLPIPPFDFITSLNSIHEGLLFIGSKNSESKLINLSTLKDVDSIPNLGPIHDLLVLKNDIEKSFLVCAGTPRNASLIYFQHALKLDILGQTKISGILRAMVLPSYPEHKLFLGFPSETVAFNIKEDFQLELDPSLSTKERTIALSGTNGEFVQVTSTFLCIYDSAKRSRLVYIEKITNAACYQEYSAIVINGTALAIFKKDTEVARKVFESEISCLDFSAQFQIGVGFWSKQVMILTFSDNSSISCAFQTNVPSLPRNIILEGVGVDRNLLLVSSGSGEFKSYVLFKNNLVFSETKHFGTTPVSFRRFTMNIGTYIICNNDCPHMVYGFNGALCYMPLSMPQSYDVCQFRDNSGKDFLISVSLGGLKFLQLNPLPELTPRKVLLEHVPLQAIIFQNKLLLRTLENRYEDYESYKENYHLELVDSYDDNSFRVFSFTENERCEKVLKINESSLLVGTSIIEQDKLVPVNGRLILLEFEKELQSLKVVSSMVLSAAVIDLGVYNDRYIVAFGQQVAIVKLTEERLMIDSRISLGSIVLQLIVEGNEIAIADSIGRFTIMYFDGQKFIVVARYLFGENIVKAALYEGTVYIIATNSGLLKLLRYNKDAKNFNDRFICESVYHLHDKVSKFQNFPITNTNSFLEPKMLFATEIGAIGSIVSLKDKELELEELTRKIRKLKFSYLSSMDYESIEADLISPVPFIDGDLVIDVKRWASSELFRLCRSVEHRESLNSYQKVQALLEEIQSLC
T2 sequence (O14122 whole entry, chain 4 of 3): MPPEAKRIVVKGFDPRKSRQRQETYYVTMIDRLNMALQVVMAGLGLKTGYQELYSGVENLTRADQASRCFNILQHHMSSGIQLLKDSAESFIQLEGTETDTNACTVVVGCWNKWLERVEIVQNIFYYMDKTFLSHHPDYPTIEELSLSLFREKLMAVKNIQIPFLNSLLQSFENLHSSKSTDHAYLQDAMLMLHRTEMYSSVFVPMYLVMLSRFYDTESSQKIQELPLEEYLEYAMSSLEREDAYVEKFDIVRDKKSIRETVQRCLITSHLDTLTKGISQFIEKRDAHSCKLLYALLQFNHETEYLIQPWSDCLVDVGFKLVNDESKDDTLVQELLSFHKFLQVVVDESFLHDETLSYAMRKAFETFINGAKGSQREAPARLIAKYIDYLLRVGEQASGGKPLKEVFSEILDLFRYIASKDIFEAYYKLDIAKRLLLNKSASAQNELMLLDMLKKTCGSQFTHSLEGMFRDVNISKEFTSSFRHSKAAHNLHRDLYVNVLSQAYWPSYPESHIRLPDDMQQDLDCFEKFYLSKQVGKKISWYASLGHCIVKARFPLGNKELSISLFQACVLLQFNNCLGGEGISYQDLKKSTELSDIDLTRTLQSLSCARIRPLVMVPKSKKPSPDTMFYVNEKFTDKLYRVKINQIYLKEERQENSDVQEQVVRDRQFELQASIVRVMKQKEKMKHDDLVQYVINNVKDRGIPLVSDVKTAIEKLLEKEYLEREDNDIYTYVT

B1: Clr4N-Set2 (Clr4 chromodomain-hinge fused to the SET domain of S. pombe Set2) (other, UniProt O60016 1-192, looked up)
chain: MSPKQEEYEVERIVDEKLDRNGAVKLYRIRWLNYSSRSDTWEPPENLSGCSAVLAEWKRRKRRLKGSNSDSDSPHHASNPHPNSRQKHQHQTSKSVPRSQRFSRELNVKKENKKVFSSQTTKRQSRKQSTALTTNDTSIILDDSLHTNSKKLGKTRNEVKEESQKRELVSNSIKEATSPKTSSILTKPRNPSLFHHLDSAKDKALTTFEEIQECQYASANIGKPPENEAMICDCRPHWVDGVNVACGHGSNCINRMTSIECTDEDNVCGPSCQNQRFQRHEFAKVDVFLTEKKGFGLRADANLPKDTFVYEYIGEVIPEQKFRKRMRQYDSEGIKHFYFMMLQKGEYIDATKRGSLARFCNHSCRPNCYVDKWMVGDKLRMGIFCKRDIIRGEELTFDYNVDRYGAQAQPCYCGEPCCVGYIGGKTQTEAQSK
notes: Clr4, S. pombe, chromodomain and hinge region, amino acids 1-192 (GST-Clr4 ΔSET); Set2 H3K36 methyltransferase, S. pombe, SET domain, amino acids 90-330, fused to the C-terminus of Clr4 ΔSET; also called GST-Clr4 CD-Hinge-Set2; GST-Clr4N-Set2
Take B1: the binding result (with 6×His-MBP-Raf1; in assay [1]) was “binds” in each case.

B2: Clr4 ΔSET (amino acids 1–192) (domain or fragment, S. pombe, UniProt O60016 1-192, looked up)
chain: MSPKQEEYEVERIVDEKLDRNGAVKLYRIRWLNYSSRSDTWEPPENLSGCSAVLAEWKRRKRRLKGSNSDSDSPHHASNPHPNSRQKHQHQTSKSVPRSQRFSRELNVKKENKKVFSSQTTKRQSRKQSTALTTNDTSIILDDSLHTNSKKLGKTRNEVKEESQKRELVSNSIKEATSPKTSSILTKPRNPS
notes: Clr4, S. pombe, chromodomain and hinge region, amino acids 1-192; also called GST-Clr4 ΔSET
Consider B2, for which the binding result with 6×His-MBP-Raf1 is “binds”.
